This is an account of results in the supplement of paper PMC9170038.

This series deals with K4 kissing-loop RNA reporter. As to the kind of experiment: apparent KD of K4 kissing-loop reporter; higher = weaker reporter binding. The conditions noted are these: Eterna round: R107. The method, then: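 RNA-MaP round R107: designed RNA switches with theophylline, tryptophan, arginine or FMN aptamers are transcribed on-chip within common flanks. They are titrated with a labelled K4 kissing-loop RNA reporter in RNA-MaP buffer (100 mM Tris pH 7.5, 80 mM KCl, 4 mM MgCl2), without ligand or with the indicated ligand. Median apparent KD per design.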

Where [1] appears, read: input ligand: theophylline 20 uM.
The mark [2] stands for this setting: input ligand: tryptophan 2.4 mM.
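Also: bound reporter read as fluorescence of individual clusters on recovered sequencing chips by microscopy, with normalized cluster intensities fitted with a binding model.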

“GGGUGGCAGGCGGCCGCCACUCUGAGGGUCCACAGUGAUGUUGUGGGCGCGUAAGCGUCUUCAUAGAGGACCGGGUUUGUUGUUC [Same State Tryptophan B GF 24]”: the “apparent KD of K4 kissing-loop reporter” value (input ligand: FMN 200 uM) came to 422 nM; the “apparent KD of K4 kissing-loop reporter” value (input ligand: arginine 13.2 mM) turned out to be 308 nM; the “apparent KD of K4 kissing-loop reporter” value (input ligand: none) was 454 nM; the “apparent KD of K4 kissing-loop reporter” value under setting [1] was found to be 403 nM; the “apparent KD of K4 kissing-loop reporter” value under setting [2] stood at 338 nM.
The corresponding values for “GGGUUUGCCGGAAGGAGCGCACUAUGGAGUGAUGUUCCAUGACCGCACAGCUUGCGGUCAGUGCAGGUAGGUCGCCGGUAACGUU [Enatbeve]” are 237 nM, 181 nM, 180 nM, 201 nM and 194 nM.
In the case of “GGUACAGCGGAAGGAUAUCUGUCAUGGACGAUCGUAGCUUGAGCUCCCUGAGUGAUGUUUAGGAUGAGAGAAGGUCCACUCGUAU [theeternabot_exclusion_KL_FMN_B_2]”, the “apparent KD of K4 kissing-loop reporter” value by setting is: (input ligand: FMN 200 uM) 673 nM; (input ligand: arginine 13.2 mM) 358 nM; (input ligand: none) 591 nM; under setting [1], 626 nM; under setting [2], 450 nM.
As to “GGUAGCAUGGCGGCCGCCACUAAUACUUCGUAGCCUGUAGCCGGCUUCGUAGAGUGAUGUUCUAUUAGGACCGGGCCAUGCUACC”, the “apparent KD of K4 kissing-loop reporter” value is, setting by setting: (input ligand: FMN 200 uM) 361 nM; (input ligand: arginine 13.2 mM) 520 nM; (input ligand: none) 450 nM; under setting [1], 526 nM; under setting [2], 493 nM.
In the case of “GGUAGCAUGGCGGCCGCCACUAGAUCAGUGAUGUUGAUCCCGCCGUCUUACGGCGAGUCAGAGGCUAGGACCGGGCCAUGCUACC”, the “apparent KD of K4 kissing-loop reporter” value runs as follows: (input ligand: FMN 200 uM) 601 nM; (input ligand: arginine 13.2 mM) 318 nM; (input ligand: none) 490 nM; under setting [1], 590 nM; under setting [2], 963 nM.
The corresponding values for “GGUAGCAUGGCGGCCGCCACUAUAAAGAAUCCAAAGGAUUCUAGGUAGUGAUGUUACCAUAGCUAUAGGACCGGGCCAUGCUACC” are 156 nM, 120 nM, 174 nM, 121 nM and 56.5 nM.
In the case of “GGUAGCAUGGCGGCCGCCACUGUUCGUGUUGCUAGCAGAUUCCAGUGAUGUUGGAAGCCUAGGUACAGGACCGGGCCAUGCUACC”, the “apparent KD of K4 kissing-loop reporter” value came to 105 nM (input ligand: FMN 200 uM); 115 nM (input ligand: arginine 13.2 mM); 131 nM (input ligand: none); 102 nM under setting [1]; 103 nM under setting [2].
Taken in the same sequence, the figures for “GGUAGCAUGGCGGCCGCCACUUCAAUUGGAGUGAUGUUCCAAGGCAUCGCGAAAGCGAUGCCAGGAAGGACCGGGCCAUGCUACC” were 271 nM, 224 nM, 306 nM, 222 nM and 112 nM.
The corresponding values for “GGUAGCAUGGCGGCCGCCACUUCGAAUAAGUGAUGUUUAUUUGACUGAGCACCCUAUGCCAUGUGAAGGACCGGGCCAUGCUACC” are 147 nM, 138 nM, 157 nM, 208 nM and 200 nM.
Taken in the same sequence, the figures for “GGUAUCCAGUACCAUUGCGUUAAAACAGAAGGAGCGAGUAUGGACUCAGGUAGGUCGCUGUUUAUAGUCGAGUGAUGUUCGAAUC [Same State Arginine A GF 15]” were 237 nM, 280 nM, 281 nM, 316 nM and 222 nM.
Turning to “GGUCCGGGCUCGGCCGCCACUCCCUCGUACCGCAAGGUAUGAUACCGAGUGAUGUUCGGUUGGAGGAGGACCGGGAGCCCGGACC [#2 Exclusion - Tryptophan B Attempt #9 (HarryS)]”, the “apparent KD of K4 kissing-loop reporter” value by setting is: (input ligand: FMN 200 uM) 112 nM; (input ligand: arginine 13.2 mM) 110 nM; (input ligand: none) 132 nM; under setting [1], 124 nM; under setting [2], 100 nM.
Consider “GGUCGGAGUGAUGUUCCGAGCUUCAGUCAUCGAGGACCGGUACGGCCGCCACUCGUCUACUAUGACGUAUCACCCUCCACGUGUU [theeternabot_sameState_KL_Trp_A_33]”, for which the “apparent KD of K4 kissing-loop reporter” value is, setting by setting: (input ligand: FMN 200 uM) 150 nM; (input ligand: arginine 13.2 mM) 142 nM; (input ligand: none) 146 nM; under setting [1], 145 nM; under setting [2], 125 nM.
Taken in the same sequence, the figures for “GGUGACAACCAGGAGUGAUGUAUAGAAUAGCGAGGACCGGUACGGCCGCCACUCGUGAAGAGAAAGGAGUGAUGUUCCGUAAUGG [Kazoo C3]” were 129 nM, 126 nM, 165 nM, 74.2 nM and 62.8 nM.
Taken in the same sequence, the figures for “GGUGACGGCCAGGAGUGAUGUAUAGAAUAGCGAGGACCGGUACGGCCGCCACUCGUGAAGAAAAGGGAGUGAUGUUCCGUAAUGU [Kazoo]” were 87.8 nM, 122 nM, 75.3 nM, 126 nM and 49.5 nM.
As for “GGUGCGGGCUCGGCCGCCACUCCCUCCUGCCGUAAGGUGGGAUACCGAGUGAUGUUCGGUUGGAGGAGGACCGGGAGCCCGUGCC [#2 Exclusion - Tryptophan B Attempt #16 (HarryS)]”, the “apparent KD of K4 kissing-loop reporter” value is, setting by setting: (input ligand: FMN 200 uM) 131 nM; (input ligand: arginine 13.2 mM) 102 nM; (input ligand: none) 114 nM; under setting [1], 110 nM; under setting [2], 125 nM.
The corresponding values for “GGUGCUGGCCAGUGAUGUUGGCGAAUACUGAAGGAUAUGAUAGGCGUCAGAAGGUCAAGAGUAAUAUCUAGAAUGAAUAGUGAUA [theeternabot_sameState_KL_FMN_A_38]” are 296 nM, 289 nM, 329 nM, 439 nM and 285 nM.
The corresponding values for “GGUGCUGUCUGUGCCGCCCUCCUCGUCCCUCGAGGACCGGUACGGCCGCCACUCGAGUGAUGUUCGGGUAGCGAUCCCUGCUAGC [Bdazzled - #18 Exc. Tryptophan A]” are 275 nM, 194 nM, 246 nM, 229 nM and 256 nM.
On to “GGUGUUGUUUGUGCCGCCUUCCUCGUUCCUCGAGGACCGGUACGGCCGCCACUCGAGUGAUGUUUGGGUAGCGAUCCCUGUUAGU [Bdazzled - #11 Exc. Tryptophan A]”, for which the “apparent KD of K4 kissing-loop reporter” value by setting is: (input ligand: FMN 200 uM) 764 nM; (input ligand: arginine 13.2 mM) 573 nM; (input ligand: none) 892 nM; under setting [1], 638 nM; under setting [2], 778 nM.
For “GGUGUUGUUUGUGCCGUCUUCCUCGUUCCUCGAGGACCGGUACGGCCGCCACUCGAGUGAUGUUUGGGUAGCGAUCCCUGUUAGU [Bdazzled - #10 Exc. Tryptophan A]”, the “apparent KD of K4 kissing-loop reporter” value is, setting by setting: (input ligand: FMN 200 uM) 695 nM; (input ligand: arginine 13.2 mM) 541 nM; (input ligand: none) 647 nM; under setting [1], 602 nM; under setting [2], 582 nM.
The corresponding values for “GGUGUUGUUUGUGCCGUUUUCCUCGUUCCUCGAGGACCGGUACGGCCGCCACUCGAGUGAUGUUUGGGUAGCGAUCCCUGUUAGU [Bdazzled - #9 Exc. Tryptophan A]” are 868 nM, 646 nM, 871 nM, 802 nM and 766 nM.
Taken in the same sequence, the figures for “GGUUCCUCAGUGAUGUUGAGGUGACCUCGGCAGGAUAUAGGCAUUACUAGAAGGGCCAAAAGAACCCUGUCCAGCGACACAGGGA [Zalatiat]” were 159 nM, 238 nM, 305 nM, 250 nM and 232 nM.
As for “GGUUUAUAGGAGGAUACCAGUACAAAUAAAGUACAUUAAUAGUAGAGUGAUGUUCUAAAGUACCCUUGGCAGCUUAGAUUAAGUU [ExTheophylB.G]”, the “apparent KD of K4 kissing-loop reporter” value stood at 92.6 nM (input ligand: FMN 200 uM); 181 nM (input ligand: arginine 13.2 mM); 111 nM (input ligand: none); 188 nM under setting [1]; 76.4 nM under setting [2].
